# Values quoted from earlier work, collected in PMC10747851.
# Target: TfR (Homo sapiens) (UniProt P02786)
# Sequence (P02786 89-760): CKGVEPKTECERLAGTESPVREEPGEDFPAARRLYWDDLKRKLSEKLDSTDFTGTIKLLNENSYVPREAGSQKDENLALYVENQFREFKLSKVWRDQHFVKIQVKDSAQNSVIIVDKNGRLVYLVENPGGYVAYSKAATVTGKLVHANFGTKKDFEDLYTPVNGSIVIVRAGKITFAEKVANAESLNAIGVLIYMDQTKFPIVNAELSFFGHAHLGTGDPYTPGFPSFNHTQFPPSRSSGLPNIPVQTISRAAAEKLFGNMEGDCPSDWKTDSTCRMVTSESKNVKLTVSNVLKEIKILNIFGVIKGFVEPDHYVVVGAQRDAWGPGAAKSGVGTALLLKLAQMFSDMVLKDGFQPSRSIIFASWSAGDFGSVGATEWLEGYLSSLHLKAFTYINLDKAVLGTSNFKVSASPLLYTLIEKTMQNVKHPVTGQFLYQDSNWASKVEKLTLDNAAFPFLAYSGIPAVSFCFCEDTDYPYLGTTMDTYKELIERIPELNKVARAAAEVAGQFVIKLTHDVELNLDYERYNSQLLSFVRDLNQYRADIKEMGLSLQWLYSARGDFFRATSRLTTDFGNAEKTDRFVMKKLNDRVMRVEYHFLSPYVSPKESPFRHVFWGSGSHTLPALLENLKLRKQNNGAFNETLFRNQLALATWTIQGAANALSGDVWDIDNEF
substance,measurement,value
T7 peptide,Kd,0.01 µM
